# Reference: the supplement of paper PMC11316812
# ± gives the standard deviation of the averaged measurements.
# What was measured:
# [1] = system: MCF7; experiment: percentage of EdU-negative (G0-arrested) nuclei per well, 72 h; higher = more G0 arrest; settings: reference: sequence is the full UniProt precursor, the tested protein was the secreted form or ectodomain
# [2] = system: hTERT-HMEC; experiment: as above; settings: reference: sequence is the full UniProt precursor, the tested protein was the secreted form or ectodomain
# [3] = protein concentration 0.0225 µM
# [4] = protein concentration 0.03125 µM
# [5] = protein concentration 0.3125 µM
# [6] = protein concentration 0.027515 µM
# [7] = protein concentration 0.27515 µM
# [8] = protein concentration 0.0161125 µM
# [9] = protein concentration 0.161125 µM
# [10] = protein concentration 0.0215 µM
# 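Also: secreted proteins added to cultured cells, EdU pulse at the end, nuclei found by Hoechst imaging, EdU status from nuclear versus surrounding ring intensity ratio, PBS as neutral control.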
sequence,measurement,setting,value
MPVPASWPHLPSPFLLMTLLLGRLTGVAGEDELQVIQPEKSVSVAAGESATLRCAMTSLIPVGPIMWFRGAGAGRELIYNQKEGHFPRVTTVSELTKRNNLDFSISISNITPADAGTYYCVKFRKGSPDDVEFKSGAGTELSVRAKPSAPVVSGPAVRATPEHTVSFTCESHGFSPRDITLKWFKNGNELSDFQTNVDPAGDSVSYSIHSTARVVLTRGDVHSQVICEIAHITLQGDPLRGTANLSEAIRVPPTLEVTQQPMRAENQANVTCQVSNFYPRGLQLTWLENGNVSRTETASTLIENKDGTYNWMSWLLVNTCAHRDDVVLTCQVEHDGQQAVSKSYALEISAHQKEHGSDITHEAALAPTAPLLVALLLGPKLLLVVGVSAIYICWKQKA,percentage of EdU-negative,[1]; [3],24.1 ± 1.1%
same,percentage of EdU-negative,[1]; protein concentration 0.225 µM,27 ± 1.5%
same,percentage of EdU-negative,[2]; [3],5.34 ± 0.15%
same,percentage of EdU-negative,[2]; protein concentration 0.225 µM,5.42 ± 0.66%
MPWPLLLLLAVSGAQTTRPCFPGCQCEVETFGLFDSFSLTRVDCSGLGPHIMPVPIPLDTAHLDLSSNRLEMVNESVLAGPGYTTLAGLDLSHNLLTSISPTAFSRLRYLESLDLSHNGLTALPAESFTSSPLSDVNLSHNQLREVSVSAFTTHSQGRALHVDLSHNLIHRLVPHPTRAGLPAPTIQSLNLAWNRLHAVPNLRDLPLRYLSLDGNPLAVIGPGAFAGLGGLTHLSLASLQRLPELAPSGFRELPGLQVLDLSGNPKLNWAGAEVFSGLSSLQELDLSGTNLVPLPEALLLHLPALQSVSVGQDVRCRRLVREGTYPRRPGSSPKVALHCVDTRDSAARGPTIL [Q8WUA8],percentage of EdU-negative,[1]; [4],28 ± 1.4%
same,percentage of EdU-negative,[1]; [5],29.1 ± 0.81%
same,percentage of EdU-negative,[2]; [4],5.33 ± 0.84%
same,percentage of EdU-negative,[2]; [5],5.25 ± 0.93%
MQAARGGAGRPERPGRPGRGPERERERPPGAGAASPCAAPGLPAGGATIHPGSPSAWPPRARAALRLWLGCVCFALVQADSPSAPVNVTVRHLKANSAVVSWDVLEDEVVIGFAISQQKKDVRMLRFIQEVNTTTRSCALWDLEEDTEYIVHVQAISIQGQSPASEPVLFKTPREAEKMASKNKDEVTMKEMGRNQQLRTGEVLIIVVVLFMWAGVIALFCRQYDIIKDNEPNNNKEKTKSASETSTPEHQGGGLLRSKI [Q8NAU1],percentage of EdU-negative,[1]; [3],27.08 ± 0.2%
same,percentage of EdU-negative,[1]; protein concentration 0.225 µM,25.3 ± 1.4%
same,percentage of EdU-negative,[2]; [3],5.26 ± 1.1%
same,percentage of EdU-negative,[2]; protein concentration 0.225 µM,5.43 ± 0.82%
MQAAWLLGALVVPQLLGFGHGARGAEREWEGGWGGAQEEEREREALMLKHLQEALGLPAGRGDENPAGTVEGKEDWEMEEDQGEEEEEEATPTPSSGPSPSPTPEDIVTYILGRLAGLDAGLHQLHVRLHALDTRVVELTQGLRQLRNAAGDTRDAVQALQEAQGRAEREHGRLEGCLKGLRLGHKCFLLSRDFEAQAAAQARCTARGGSLAQPADRQQMEALTRYLRAALAPYNWPVWLGVHDRRAEGLYLFENGQRVSFFAWHRSPRPELGAQPSASPHPLSPDQPNGGTLENCVAQASDDGSWWDHDCQRRLYYVCEFPF [Q9Y240],percentage of EdU-negative,[1]; [4],24.4 ± 0.81%
same,percentage of EdU-negative,[1]; [5],27.6 ± 1.3%
same,percentage of EdU-negative,[2]; [4],6.19 ± 0.7%
same,percentage of EdU-negative,[2]; [5],6.64 ± 1.2%
MQALVLLLCIGALLGHSSCQNPASPPEEGSPDPDSTGALVEEEDPFFKVPVNKLAAAVSNFGYDLYRVRSSTSPTTNVLLSPLSVATALSALSLGAEQRTESIIHRALYYDLISSPDIHGTYKELLDTVTAPQKNLKSASRIVFEKKLRIKSSFVAPLEKSYGTRPRVLTGNPRLDLQEINNWVQAQMKGKLARSTKEIPDEISILLLGVAHFKGQWVTKFDSRKTSLEDFYLDEERTVRVPMMSDPKAVLRYGLDSDLSCKIAQLPLTGSMSIIFFLPLKVTQNLTLIEESLTSEFIHDIDRELKTVQAVLTVPKLKLSYEGEVTKSLQEMKLQSLFDSPDFSKITGKPIKLTQVEHRAGFEWNEDGAGTTPSPGLQPAHLTFPLDYHLNQPFIFVLRDTDTGALLFIGKILDPRGP,percentage of EdU-negative,[1]; [6],26.5 ± 1.4%
same,percentage of EdU-negative,[1]; [7],28 ± 0.47%
same,percentage of EdU-negative,[2]; [6],5.35 ± 0.62%
same,percentage of EdU-negative,[2]; [7],9.19 ± 1.1%
MQAPGRGPLGLRLMMPGRRGALREPGGCGSCLGVALALLLLLLPACCPVRAQNDTEPIVLEGKCLVVCDSSPSADGAVTSSLGISVRSGSAKVAFSATRSTNHEPSEMSNRTMTIYFDQVLVNIGNHFDLASSIFVAPRKGIYSFSFHVVKVYNRQTIQVSLMQNGYPVISAFAGDQDVTREAASNGVLLLMEREDKVHLKLERGNLMGGWKYSTFSGFLVFPL [Q8IUK8],percentage of EdU-negative,[1]; [3],26.91 ± 0.25%
same,percentage of EdU-negative,[1]; protein concentration 0.225 µM,26.76 ± 0.11%
same,percentage of EdU-negative,[2]; [3],4.67 ± 0.45%
same,percentage of EdU-negative,[2]; protein concentration 0.225 µM,5.29 ± 0.93%
MQAQQYQQQRRKFAAAFLAFIFILAAVDTAEAGKKEKPEKKVKKSDCGEWQWSVCVPTSGDCGLGTREGTRTGAECKQTMKTQRCKIPCNWKKQFGAECKYQFQAWGECDLNTALKTRTGSLKRALHNAECQKTVTISKPCGKLTKPKPQAESKKKKKEGKKQEKMLD,percentage of EdU-negative,[1]; [8],25.8 ± 1.2%
same,percentage of EdU-negative,[1]; [9],30.5 ± 1.6%
same,percentage of EdU-negative,[2]; [8],4.79 ± 0.99%
same,percentage of EdU-negative,[2]; [9],5.12 ± 0.3%
MQCLLLLPFLLLGTVSALHLENDAPHLESLETQADLGQDLDSSKEQERDLALTEEVIQAEGEEVKASACQDNFEDEEAMESDPAALDKDFQCPREEDIVEVQGSPRCKICRYLLVRTPKTFAEAQNVCSRCYGGNLVSIHDFNFNYRIQCCTSTVNQAQVWIGGNLRGWFLWKRFCWTDGSHWNFAYWSPGQPGNGQGSCVALCTKGGYWRRAQCDKQLPFVCSF [Q9Y2Y8],percentage of EdU-negative,[1]; [10],28.7 ± 1.2%
same,percentage of EdU-negative,[1]; protein concentration 0.215 µM,32.1 ± 2.4%
same,percentage of EdU-negative,[2]; [10],5.28 ± 1.6%
same,percentage of EdU-negative,[2]; protein concentration 0.215 µM,8.49 ± 1.7%
